# Data reported in PMC6899460, “The Pseudomonas aeruginosa T6SS Delivers a Periplasmic Toxin that Disrupts Bacterial Cell Morphology” (Cell Reports, 2019).
# B1: VgrG2b C-terminal domain (VgrG2bC-ter) (domain or fragment)
# chain: VGETQRRFVLKQLDGQTAMPNVPYTITMANGEVIEGVTDAEGATQLLQKDAMNIAKVDMKHTKSPASAVAGIAAAVGAAVAVGKLLGGPDAEAGRALSEGEISLAKGVFGDSIDYSTVRLRDEDYVPWQGKDYVMAPNGHIYFGEELRGVADWSLESLQRQGLFIHEMTHVWQHQHGVNVLLVGAYQQARQFLLGDQYAYRLEPGKTLKDYNIEQQGDIVRDYFLEKNEFGEASANSRFAGVLKNFPTGY
# notes: VgrG2b of Pseudomonas aeruginosa PAO1, C-terminal domain, residues 770-1,019; Monomeric and dimeric species were both found in solution; also called VgrG2b metallopeptidase domain; source: E. coli BL21 (λDE3) pET28a-vgrG2bC-ter, purified (Ni2+-NTA, SEC); not shown: His6, C-terminal, cleaved
# Molecular target: the molecule itself
# Assay: SEC-MALS; SEC-MALLS and refractometry; Superdex 75 10/30 column, 20°C, 0.5 ml/min; fractions pooled from two peaks obtained after preparatory size-exclusion chromatography; dimer and monomer
protein,measurement,value
B1,stoichiometry N,2
